Assay [1] deals with MUC16 (CA125), native, membrane-bound on cancer cells (human) (UniProt Q8WXI7). Briefly: cell-based or functional assay.
Assay [2] addresses MUC16-targeted mesothelin-TR3 fusion protein (Meso-TR3) (human). The assay can be described thus: cell-based or functional assay.
Assay [3] addresses MUC16 (CA125), native, membrane-bound on cancer cells (human) (UniProt Q8WXI7). Briefly: flow cytometry on OVCAR3 cells, anti-FLAG detection.

Chain of MUC16-targeted mesothelin-TR3 fusion protein (Meso-TR3) (chain): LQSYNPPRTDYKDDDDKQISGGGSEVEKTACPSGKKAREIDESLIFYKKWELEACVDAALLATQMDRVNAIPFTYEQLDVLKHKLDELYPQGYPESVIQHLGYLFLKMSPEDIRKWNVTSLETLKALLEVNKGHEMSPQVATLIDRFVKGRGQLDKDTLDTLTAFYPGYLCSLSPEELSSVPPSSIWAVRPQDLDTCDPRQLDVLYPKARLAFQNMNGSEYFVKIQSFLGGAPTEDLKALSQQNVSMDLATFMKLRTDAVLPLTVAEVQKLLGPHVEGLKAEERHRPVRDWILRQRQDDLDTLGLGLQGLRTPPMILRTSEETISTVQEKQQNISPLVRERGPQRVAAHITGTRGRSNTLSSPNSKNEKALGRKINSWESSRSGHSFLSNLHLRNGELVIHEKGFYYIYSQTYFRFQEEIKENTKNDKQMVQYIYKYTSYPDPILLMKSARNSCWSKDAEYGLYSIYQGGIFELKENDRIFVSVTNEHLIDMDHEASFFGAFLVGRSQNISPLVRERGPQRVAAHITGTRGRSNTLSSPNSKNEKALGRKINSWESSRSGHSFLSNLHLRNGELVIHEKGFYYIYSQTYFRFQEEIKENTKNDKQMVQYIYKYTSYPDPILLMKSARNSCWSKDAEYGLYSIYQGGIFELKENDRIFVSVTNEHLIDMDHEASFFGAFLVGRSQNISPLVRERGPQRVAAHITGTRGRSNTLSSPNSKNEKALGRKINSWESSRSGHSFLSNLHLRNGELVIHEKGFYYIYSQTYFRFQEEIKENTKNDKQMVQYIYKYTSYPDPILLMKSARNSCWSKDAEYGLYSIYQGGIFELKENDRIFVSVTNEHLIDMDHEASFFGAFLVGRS
Chain of MUC16-targeted mesothelin-TR3 fusion protein (Meso-TR3) (human) (chain, as listed by the source limits assumed, form in doubt): as the sequence (chain) above

In assay [1], “MUC16-targeted mesothelin-TR3 fusion protein (Meso-TR3)” had a cell death of MUC16-positive OVCAR3 cells at the highest drug dose of 65%; a cell killing of OVCAR3 cells by Meso-TR3, highest dose of soluble mesothelin competitor of 40%; a cell killing of OVCAR3 cells by Meso-TR3, no competitor of 80%; a fraction of MUC16-positive HeLa cells after Meso-TR3 treatment (flow cytometry) of 54%. In assay [1], this substance came in with a fraction of MUC16-positive HeLa cells before Meso-TR3 treatment (flow cytometry) of 80%.
For the substance “soluble death receptor 5 (DR5-Fc) (from UniProt O14763 56-182) (Fc fusion)”, in assay [2], the cell death of OVCAR3 cells by Meso-TR3 at the highest DR5-Fc concentration was below 10% and the cell death of OVCAR3 cells by Meso-TR3 in the absence of DR5-Fc stood at 90%.
For “soluble, FLAG-tagged human mesothelin (secreted form, GPI signal sequence deleted) (from UniProt Q13421 37-598) (ligand)”, the percent of cells positive for the FLAG epitope tag in assay [3] came out at 100%.

Values taken from US20180030109A1.
